For two proteins, Km and Vmax results are on record in article PMC6700365, “Expression and Characterization of Carotenoid Cleavage Oxygenases From Herbaspirillum seropedicae and Rhodobacteraceae bacterium Capable of Biotransforming Isoeugenol and 4-Vinylguaiacol to Vanillin” (Frontiers in Microbiology, 2019).

Assay in all cases: HPLC of vanillin formed
Substrate in data set [1]: C=Cc1ccc(O)c(OC)c1
It is filed as biochemical, Paracoccaceae bacterium. The settings on record: measured under optimal conditions (pH 9.0, 35 °C), 10% glycerol. An excerpt:
(§1) HPLC of vanillin formed on RbCCO

Substrate in data set [2]: CC=Cc1ccc(O)c(OC)c1
The format is biochemical, Paracoccaceae bacterium. The settings on record: measured under optimal conditions (pH 9.0, 35 °C), 10% glycerol.
Description: as §1

Substrate in data set [3]: C=Cc1ccc(O)c(OC)c1
It is filed as biochemical, Herbaspirillum seropedicae. The settings on record: measured under optimal conditions (pH 7.0, 40 °C), 10% glycerol. An excerpt:
(§2) HPLC of vanillin formed on HsCCO

Substrate in data set [4]: CC=Cc1ccc(O)c(OC)c1
It is filed as biochemical, Herbaspirillum seropedicae. The settings on record: measured under optimal conditions (pH 7.0, 40 °C), 10% glycerol.
Description: as §2

B1: RbCCO (Paracoccaceae bacterium) (protein)
chain: MTRPFPKTPEFSGSLYRPARFEGSVFDLEVEGRVPEDIHGTFFQVAPDPQFPPMRGNDIFFNGDGAVHAFRFANGAVDFQRRYVMTDRLKAQRAERESLFGLYRNGYTNDPRADGVHMGTANTNVVQHNGRLLALKEDSPPYALDPVTLETHGLFDFDGQLTSPTFTAHPKFDPETGAMLCFGYEAKGEATPDIVYYEIDSQGRKQREIWLRGPYAAMIHDFAVTRNYIIFPLMPLTPDLDRIRKGGNHFEWQPGLEQVFGVLPRDGDGTDVRWFTAPNGFQGHTLNAFDDGRGRIFVDMPVTDGNIFYFFPQSDGHVPPPETLSSRMMRWTFDMNNPGNALSMAPITDFACEFPKCDPRYSGHEYRHGFVIGMDMTRPFDAERLGAPPFQFFNLLSHVDVATRRVKSWFADAQTCFQEPVFVPRSANAPEGEGWVIALANRLVDQTTDLVILDAQHMDEGPVAVVHLPVRLRMSLHGSWVPAAA
notes: codon-optimized gene, BamHI/XhoI in pET-29a(+), His-tagged, co-expressed with GroEL/GroES (pGro7) in E. coli BL21(DE3), Ni-NTA, about 55 kDa on SDS-PAGE
Turning to B1, the Km in the data set “HPLC of vanillin formed [1]” came out at 850 µM; in the data set “HPLC of vanillin formed [2]” it was 2240 µM. Further, the figures for the Vmax in “HPLC of vanillin formed [1]” and in “HPLC of vanillin formed [2]” were 0.02 µmol/min/mg and 0.0765 µmol/min/mg, respectively.

B2: HsCCO (Herbaspirillum seropedicae) (protein)
chain: MSMQYPATPEFQGMYRPSRVEASVQALEVVGQLPAQLQGCFYQVAPDPAYPPMLGQDIFFNGDGMVSAFRFGQGQVSLTRRYVQTERLKAQRQAGRSLNGIYRNIYTNAPEAASDNTTANTTVIKHAGVLLALKEDSLPYAMDPVTLETRGLWDFHGQVKSATFTAHPKICPQSGSMLCFAYEAKGDGTPDIAYYEIDAAGKLIRETWFQAPYAAMIHDFAVTENYVIFPIIPLTVDVERMKRGGQHFQWQPDLPQLFGILPRAGDAADVRWFYGPADGFQGHTLNAYELGRKLILDMPVTSGNVFYFFPQADGFVPSPETLKSGLARWTFDLDADNDQVMPEPLTQFPCEFPRCDERYSGRPYQHGFMLAFDPTLPFDAAALGAPPFQFFNQLAHVNVRTGETRTWYAGDAHCFQEPVFVPRSADAPEGDGFLLSLLNDLRSGATELVILDTHDLSAGPVARVQIPLRMRMSLHGNWSSD
notes: codon-optimized gene, NdeI/XhoI in pET-29a(+), His-tagged, E. coli BL21(DE3), Ni-NTA, about 55 kDa on SDS-PAGE
Regarding B2, in “HPLC of vanillin formed [3]”, the Michaelis-Menten constant (Km) was 1650 µM and the Vmax was 0.0279 µmol/min/mg. Moreover, in “HPLC of vanillin formed [4]”, the Km amounted to 1550 µM and the Vmax is 0.0741 µmol/min/mg.
